This note sets out measurements from the supplement of paper PMC5998384.

In series [1] the test system is HeLa Kyoto. Put plainly: solubility in G1/S (NP-40 vs SDS abundance) (log2 ratio); higher = more soluble. To be noted: cell cycle stage: G1/S.
The test system of series [2] is HeLa Kyoto. As to the kind of experiment: melting temperature (median over replicates), in situ; higher = more thermally stable.
Series [3] relates to HeLa Kyoto. As to the kind of experiment: solubility change mitosis vs G1/S (difference of NP-40 vs SDS log2 ratios) (log2 ratio difference); higher = more soluble in mitosis.
In series [4] the test system is HeLa Kyoto. As to the kind of experiment: thermal stability score vs G1/S (z-score of summed log2 fold changes over temperatures); higher = more thermally stable than in G1/S.
Setting [5] is: cell cycle stage: early G1 (4.5 h after nocodazole release).
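Throughout, for melting temperature (median over replicates), in situ: HeLa Kyoto cells synchronized by double thymidine or nocodazole block, proteins quantified by TMT10plex mass spectrometry, three independent biological replicates.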
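Throughout, for solubility change mitosis vs G1/S (difference of NP-40 vs SDS log2 ratios): synchronized HeLa Kyoto cells (double thymidine block for G1/S, nocodazole release for mitosis), protein amounts in NP-40 versus SDS lysates quantified by mass spectrometry, three biological replicates.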
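Throughout, for solubility in G1/S (NP-40 vs SDS abundance): HeLa Kyoto cells arrested at G1/S by double thymidine block, proteins quantified by TMT10plex mass spectrometry in mild NP-40 versus SDS extracts, three biological replicates.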
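Throughout, for thermal stability score vs G1/S (z-score of summed log2 fold changes over temperatures): synchronized HeLa Kyoto cells, proteins quantified by TMT10plex mass spectrometry, three biological replicates, mitosis taken 0.5 h after nocodazole release, G1/S directly after double thymidine block.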

On to “MARENGESSSSWKKQAEDIKKIFEFKETLGTGAFSEVVLAEEKATGKLFAVKCIPKKALKGKESSIENEIAVLRKIKHENIVALEDIYESPNHLYLVMQLVSGGELFDRIVEKGFYTEKDASTLIRQVLDAVYYLHRMGIVHRDLKPENLLYYSQDEESKIMISDFGLSKMEGKGDVMSTACGTPGYVAPEVLAQKPYSKAVDCWSIGVIAYILLCGYPPFYDENDSKLFEQILKAEYEFDSPYWDDISDSAKDFIRNLMEKDPNKRYTCEQAARHPWIAGDTALNKNIHESVSAQIRKNFAKSKWRQAFNATAVVRHMRKLHLGSSLDSSNASVSSSLSLASQKDCLAPSTLCSFISSSSGVSGVGAERRPRPTTVTAVHSGSK [CAMK1D]”, for which the “solubility in G1/S (log2)” value in the series with HeLa Kyoto [1] came to 0.0619. Further, the figures for the melting temperature with HeLa Kyoto [2] (cell cycle stage: G1/S) and in the series on HeLa Kyoto [2] (cell cycle stage: mitosis) were 49.8 °C and 50.3 °C, respectively. Further, in the series on HeLa Kyoto [3], the “solubility change mitosis (log2)” value is -0.0784. Further, the thermal stability score stood at 0.0756 in the series on HeLa Kyoto [4] (setting [5]) and 0.252 in the series with HeLa Kyoto [4] (cell cycle stage: mitosis).

With “MARFALTVVRHGETRFNKEKIIQGQGVDEPLSETGFKQAAAAGIFLNNVKFTHAFSSDLMRTKQTMHGILERSKFCKDMTVKYDSRLRERKYGVVEGKALSELRAMAKAAREECPVFTPPGGETLDQVKMRGIDFFEFLCQLILKEADQKEQFSQGSPSNCLETSLAEIFPLGKNHSSKVNSDSGIPGLAASVLVVSHGAYMRSLFDYFLTDLKCSLPATLSRSELMSVTPNTGMSLFIINFEEGREVKPTVQCICMNLQDHLNGLTETR [TIGAR]”, the “solubility in G1/S (log2)” value in the series on HeLa Kyoto [1] turned out to be 0.348. The melting temperature in the series with HeLa Kyoto [2] (cell cycle stage: G1/S) was determined as 50.2 °C; in the series on HeLa Kyoto [2] (cell cycle stage: mitosis), 50.3 °C. Moreover, the “solubility change mitosis (log2)” value with HeLa Kyoto [3] is -0.0797. The thermal stability score in the series on HeLa Kyoto [4] (setting [5]) is -0.092; in the series with HeLa Kyoto [4] (cell cycle stage: mitosis), 0.286.

Turning to “MARHVFLTGPPGVGKTTLIHKASEVLKSSGVPVDGFYTEEVRQGGRRIGFDVVTLSGTRGPLSRVGLEPPPGKRECRVGQYVVDLTSFEQLALPVLRNADCSSGPGQRVCVIDEIGKMELFSQLFIQAVRQTLSTPGTIILGTIPVPKGKPLALVEEIRNRKDVKVFNVTKENRNHLLPDIVTCVQSSRK [NTPCR]”, the “solubility in G1/S (log2)” value with HeLa Kyoto [1] came to 0.569. Further, the melting temperature in the series with HeLa Kyoto [2] (cell cycle stage: G1/S) came to 52.6 °C; in the series with HeLa Kyoto [2] (cell cycle stage: mitosis), 53.4 °C. Also, the “solubility change mitosis (log2)” value in the series on HeLa Kyoto [3] was 0.0287. Moreover, the thermal stability score came out at 1.23 with HeLa Kyoto [4] (setting [5]) and 0.656 in the series on HeLa Kyoto [4] (cell cycle stage: mitosis).

Regarding “MARKLSVILILTFALSVTNPLHELKAAAFPQTTEKISPNWESGINVDLAISTRQYHLQQLFYRYGENNSLSVEGFRKLLQNIGIDKIKRIHIHHDHDHHSDHEHHSDHERHSDHEHHSEHEHHSDHDHHSHHNHAASGKNKRKALCPDHDSDSSGKDPRNSQGKGAHRPEHASGRRNVKDSVSASEVTSTVYNTVSEGTHFLETIETPRPGKLFPKDVSSSTPPSVTSKSRVSRLAGRKTNESVSEPRKGFMYSRNTNENPQECFNASKLLTSHGMGIQVPLNATEFNYLCPAIINQIDARSCLIHTSEKKAEIPPKTYSLQIAWVGGFIAISIISFLSLLGVILVPLMNRVFFKFLLSFLVALAVGTLSGDAFLHLLPHSHASHHHSHSHEEPAMEMKRGPLFSHLSSQNIEESAYFDSTWKGLTALGGLYFMFLVEHVLTLIKQFKDKKKKNQKKPENDDDVEIKKQLSKYESQLSTNEEKVDTDDRTEGYLRADSQEPSHFDSQQPAVLEEEEVMIAHAHPQEVYNEYVPRGCKNKCHSHFHDTLGQSDDLIHHHHDYHHILHHHHHQNHHPHSHSQRYSREELKDAGVATLAWMVIMGDGLHNFSDGLAIGAAFTEGLSSGLSTSVAVFCHELPHELGDFAVLLKAGMTVKQAVLYNALSAMLAYLGMATGIFIGHYAENVSMWIFALTAGLFMYVALVDMVPEMLHNDASDHGCSRWGYFFLQNAGMLLGFGIMLLISIFEHKIVFRINF [SLC39A6]”, the “solubility in G1/S (log2)” value in the series on HeLa Kyoto [1] was -0.161. This sequence also gave a melting temperature in the series with HeLa Kyoto [2] (cell cycle stage: mitosis) of 57.4 °C. In addition, in the series on HeLa Kyoto [3], the “solubility change mitosis (log2)” value is -0.0474. The thermal stability score in the series on HeLa Kyoto [4] (setting [5]) is 0.915; in the series with HeLa Kyoto [4] (cell cycle stage: mitosis), -0.208.

As to “MARMNRPAPVEVTYKNMRFLITHNPTNATLNKFIEELKKYGVTTIVRVCEATYDTTLVEKEGIHVLDWPFDDGAPPSNQIVDDWLSLVKIKFREEPGCCIAVHCVAGLGRAPVLVALALIEGGMKYEDAVQFIRQKRRGAFNSKQLLYLEKYRPKMRLRFKDSNGHRNNCCIQ [PTP4A1]”, the “solubility in G1/S (log2)” value in the series with HeLa Kyoto [1] was -0.131. The values for the melting temperature in the series with HeLa Kyoto [2] (cell cycle stage: G1/S) and in the series on HeLa Kyoto [2] (cell cycle stage: mitosis) were 52.9 °C and 53.8 °C, respectively. The “solubility change mitosis (log2)” value with HeLa Kyoto [3] was -0.0406. Further, the results for the thermal stability score in the series with HeLa Kyoto [4] (setting [5]) and in the series with HeLa Kyoto [4] (cell cycle stage: mitosis) were 0.98 and -0.349, respectively.

For the sequence “MASAELQGKYQKLAQEYSKLRAQNQVLKKGVVDEQANSAALKEQLKMKDQSLRKLQQEMDSLTFRNLQLAKRVELLQDELALSEPRGKKNKKSGESSSQLSQEQKSVFDEDLQKKIEENERLHIQFFEADEQHKHVEAELRSRLATLETEAAQHQAVVDGLTRKYMETIEKLQNDKAKLEVKSQTLEKEAKECRLRTEECQLQLKTLHEDLSGRLEESLSIINEKVPFNDTKYSQYNALNVPLHNRRHQLKMRDIAGQALAFVQDLVTALLNFHTYTEQRIQIFPVDSAIDTISPLNQKFSQYLHENASYVRPLEEGMLHLFESITEDTVTVLETTVKLKTFSEHLTSYICFLRKILPYQLKSLEEECESSLCTSALRARNLELSQDMKKMTAVFEKLQTYIALLALPSTEPDGLLRTNYSSVLTNVGAALHGFHDVMKDISKHYSQKAAIEHELPTATQKLITTNDCILSSVVALTNGAGKIASFFSNNLDYFIASLSYGPKAASGFISPLSAECMLQYKKKAAAYMKSLRKPLLESVPYEEALANRRILLSSTESREGLAQQVQQSLEKISKLEQEKEHWMLEAQLAKIKLEKENQRIADKLKNTGSAQLVGLAQENAAVSNTAGQDEATAKAVLEPIQSTSLIGTLTRTSDSEVPDVESREDLIKNHYMARIVELTSQLQLADSKSVHFYAECRALSKRLALAEKSKEALTEEMKLASQNISRLQDELTTTKRSYEDQLSMMSDHLCSMNETLSKQREEIDTLKMSSKGNSKKNKSR [PPP1R21]”, the “solubility in G1/S (log2)” value in the series on HeLa Kyoto [1] is 0.371. Besides, the melting temperature in the series with HeLa Kyoto [2] (cell cycle stage: G1/S) was 51.3 °C; in the series with HeLa Kyoto [2] (cell cycle stage: mitosis) it was 51 °C. For the same sequence, the “solubility change mitosis (log2)” value in the series with HeLa Kyoto [3] is -0.00813. Also, the results for the thermal stability score in the series with HeLa Kyoto [4] (setting [5]) and in the series on HeLa Kyoto [4] (cell cycle stage: mitosis) were 1.34 and 1.02, respectively.

For “MASCAEPSEPSAPLPAGVPPLEDFEVLDGVEDAEGEEEEEEEEEEEDDLSELPPLEDMGQPPAEEAEQPGALAREFLAAMEPEPAPAPAPEEWLDILGNGLLRKKTLVPGPPGSSRPVKGQVVTVHLQTSLENGTRVQEEPELVFTLGDCDVIQALDLSVPLMDVGETAMVTADSKYCYGPQGRSPYIPPHAALCLEVTLKTAVDGPDLEMLTGQERVALANRKRECGNAHYQRADFVLAANSYDLAIKAITSSAKVDMTFEEEAQLLQLKVKCLNNLAASQLKLDHYRAALRSCSLVLEHQPDNIKALFRKGKVLAQQGEYSEAIPILRAALKLEPSNKTIHAELSKLVKKHAAQRSTETALYRKMLGNPSRLPAKCPGKGAWSIPWKWLFGATAVALGGVALSVVIAARN [FKBP8]”, in the series on HeLa Kyoto [1], the “solubility in G1/S (log2)” value stood at 0.229. Further, the melting temperature is 48.7 °C in the series with HeLa Kyoto [2] (cell cycle stage: G1/S) and 49.5 °C with HeLa Kyoto [2] (cell cycle stage: mitosis). Besides, the “solubility change mitosis (log2)” value in the series with HeLa Kyoto [3] was -0.0477. For the same sequence, the thermal stability score was determined as 1.22 in the series with HeLa Kyoto [4] (setting [5]) and 3 in the series on HeLa Kyoto [4] (cell cycle stage: mitosis).

“MASCASIDIEDATQHLRDILKLDRPAGGPSAESPRPSSAYNGDLNGLLVPDPLCSGDSTSANKTGLRTMPPINLQEKQVICLSGDDSSTCIGILAKEVEIVASSDSSISSKARGSNKVKIQPVAKYDWEQKYYYGNLIAVSNSFLAYAIRAANNGSAMVRVISVSTSERTLLKGFTGSVADLAFAHLNSPQLACLDEAGNLFVWRLALVNGKIQEEILVHIRQPEGTPLNHFRRIIWCPFIPEESEDCCEESSPTVALLHEDRAEVWDLDMLRSSHSTWPVDVSQIKQGFIVVKGHSTCLSEGALSPDGTVLATASHDGYVKFWQIYIEGQDEPRCLHEWKPHDGRPLSCLLFCDNHKKQDPDVPFWRFLITGADQNRELKMWCTVSWTCLQTIRFSPDIFSSVSVPPSLKVCLDLSAEYLILSDVQRKVLYVMELLQNQEEGHACFSSISEFLLTHPVLSFGIQVVSRCRLRHTEVLPAEEENDSLGADGTHGAGAMESAAGVLIKLFCVHTKALQDVQIRFQPQLNPDVVAPLPTHTAHEDFTFGESRPELGSEGLGSAAHGSQPDLRRIVELPAPADFLSLSSETKPKLMTPDAFMTPSASLQQITASPSSSSSGSSSSSSSSSSSLTAVSAMSSTSAVDPSLTRPPEELTLSPKLQLDGSLTMSSSGSLQASPRGLLPGLLPAPADKLTPKGPGQVPTATSALSLELQEVEPLGLPQASPSRTRSPDVISSASTALSQDIPEIASEALSRGFGSSAPEGLEPDSMASAASALHLLSPRPRPGPELGPQLGLDGGPGDGDRHNTPSLLEAALTQEASTPDSQVWPTAPDITRETCSTLAESPRNGLQEKHKSLAFHRPPYHLLQQRDSQDASAEQSDHDDEVASLASASGGFGTKVPAPRLPAKDWKTKGSPRTSPKLKRKSKKDDGDAAMGSRLTEHQVAEPPEDWPALIWQQQRELAELRHSQEELLQRLCTQLEGLQSTVTGHVERALETRHEQEQRRLERALAEGQQRGGQLQEQLTQQLSQALSSAVAGRLERSIRDEIKKTVPPCVSRSLEPMAGQLSNSVATKLTAVEGSMKENISKLLKSKNLTDAIARAAADTLQGPMQAAYREAFQSVVLPAFEKSCQAMFQQINDSFRLGTQEYLQQLESHMKSRKAREQEAREPVLAQLRGLVSTLQSATEQMAATVAGSVRAEVQHQLHVAVGSLQESILAQVQRIVKGEVSVALKEQQAAVTSSIMQAMRSAAGTPVPSAHLDCQAQQAHILQLLQQGHLNQAFQQALTAADLNLVLYVCETVDPAQVFGQPPCPLSQPVLLSLIQQLASDLGTRTDLKLSYLEEAVMHLDHSDPITRDHMGSVMAQVRQKLFQFLQAEPHNSLGKAARRLSLMLHGLVTPSLP [EDC4]”: the “solubility in G1/S (log2)” value in the series with HeLa Kyoto [1] stood at 0.013. Besides, the figures for the melting temperature in the series on HeLa Kyoto [2] (cell cycle stage: G1/S) and with HeLa Kyoto [2] (cell cycle stage: mitosis) were 49.6 °C and 50.1 °C, respectively. In addition, the “solubility change mitosis (log2)” value with HeLa Kyoto [3] is -0.158. In addition, the thermal stability score is 0.116 with HeLa Kyoto [4] (setting [5]) and 2.4 in the series with HeLa Kyoto [4] (cell cycle stage: mitosis).
